The supplement of paper PMC7877785
± gives the uncertainty stated by the source.

Test: self-splicing fitness, log relative to wild type (ln ratio); higher = more splicing; Tetrahymena group I intron in knt gene, E. coli kanamycin selection, DiMSum; sequences stand for … in CUCUCU…GGAGGGAAAAGUUAUCAGGCAUGCACCUGGUAGCUAGUCUUUAAACCAAUAGAUUGCAUCGGUUUAAAAGGCAAGACCGUCAAAUUGCGGGAAAGGGGUCAACAGCCGUUCAGUACCAAGUCUCAGGGGAAACUUUGAGAUGGCCUUGCAAAGGGUAUGGUAAUAAGCUGACGGACAUGGUCCUAACCACGCAGCCAAGUCCUAAGUCAACAGAUCUUCUGUUGAUAUGGAUGCAGUUCACAGACUAAAUGUCGGUCGGGGAAGAUGUAUUCUUCUCAUAAGAUAUAGUCGGACCUCUCCUUAAUGGGAGCUAGCGGAUGAAGUGAUGCAACACUGGAGCCGCUGGGAACUAAUUUGUAUGCGAAAGUAUAUUGAUUAGUUUUGGAGUACUCGUGGUCG
In short: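 The eight P1ex-region nucleotides of an intron in the knt kanamycin-resistance gene on pET-22b(+) were all randomised and the library put into E. coli BL21(DE3). Six replicate transformations were grown overnight at 37°C or 30°C on LB agar with or without 25 μg/mL kanamycin, together with 100 μg/mL carbenicillin, 50 μM IPTG and 0.2% rhamnose. Colonies were pooled and amplicon-sequenced on an Illumina HiSeq 2500. Fitness from DiMSum is the error-weighted combination of wild-type-normalised replicate fold changes, kanamycin over none.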

| Sequence | self-splicing fitness (ln) (30 °C) | self-splicing fitness (ln) (37 °C) |
| --- | --- | --- |
| AUACAGCAAUAUUACGUCGU | -1.3 ± 0.07 | -0.0346 ± 0.077 |
| AUACAGCAAUAUUACGUUUA | -1.73 ± 0.078 | -1.07 ± 0.084 |
| AUAGAGCAAUAUUACGACCA | -2.34 ± 0.18 | -1.49 ± 0.27 |
| AUAGAGCAAUAUUACGACGG | -2.52 ± 0.18 | -0.742 ± 0.26 |
| AUAGAGCAAUAUUACGAUAA | -1.23 ± 0.16 | -0.812 ± 0.23 |
| AUAGAGCAAUAUUACGCACU | -0.797 ± 0.14 | 0.815 ± 0.14 |
| AUAGAGCAAUAUUACGCAUA | -0.926 ± 0.16 | -0.513 ± 0.26 |
| AUAGAGCAAUAUUACGCCAA | -2.44 ± 0.24 | -0.839 ± 0.3 |
| AUAGAGCAAUAUUACGCGAA | -1.34 ± 0.093 | -1.1 ± 0.11 |
| AUAGAGCAAUAUUACGCGCC | -1.86 ± 0.32 | -0.949 ± 0.28 |
| AUAGAGCAAUAUUACGCGGG | -2.17 ± 0.12 | -2.33 ± 0.16 |
| AUAGAGCAAUAUUACGCGUG | -0.385 ± 0.11 | -1.09 ± 0.13 |
| AUAGAGCAAUAUUACGCUAU | -2.49 ± 0.18 | -2.34 ± 0.3 |
| AUAGAGCAAUAUUACGGCAC | -1.75 ± 0.14 | -0.686 ± 0.2 |
| AUAGAGCAAUAUUACGGGAA | -3.43 ± 0.26 | -2.46 ± 0.25 |
| AUAGAGCAAUAUUACGGUGC | -1.96 ± 0.15 | -2.21 ± 0.46 |
| AUAGAGCAAUAUUACGUAAU | -0.582 ± 0.1 | 0.244 ± 0.12 |
| AUAGAGCAAUAUUACGUAUU | -2.46 ± 0.16 | -1.1 ± 0.17 |
| AUAGAGCAAUAUUACGUCCC | -2.36 ± 0.48 | – |
| AUAGAGCAAUAUUACGUUAG | -1.39 ± 0.11 | -1.21 ± 0.16 |
| AUAGAGCAAUAUUACGUUCC | -2.27 ± 0.22 | -1.53 ± 0.23 |
| AUAUAGCAAUAUUACGACUG | -1.47 ± 0.14 | -1.65 ± 0.21 |
| AUAUAGCAAUAUUACGAGGG | -2.57 ± 0.43 | – |
| AUAUAGCAAUAUUACGAGUA | -2.18 ± 0.2 | -1.04 ± 0.16 |
| AUAUAGCAAUAUUACGAGUG | -2.78 ± 0.19 | -1.8 ± 0.2 |

| Sequence | self-splicing fitness (ln) (30 °C) | self-splicing fitness (ln) (37 °C) |
| --- | --- | --- |
| AUAUAGCAAUAUUACGAUCG | -1.94 ± 0.12 | -0.815 ± 0.14 |
| AUAUAGCAAUAUUACGAUUA | -0.958 ± 0.23 | -0.617 ± 0.2 |
| AUAUAGCAAUAUUACGCAAG | -2.34 ± 0.22 | -0.955 ± 0.21 |
| AUAUAGCAAUAUUACGCUCU | -0.66 ± 0.18 | -0.594 ± 0.18 |
| AUAUAGCAAUAUUACGCUUU | -2.12 ± 0.41 | -1.34 ± 0.31 |
| AUAUAGCAAUAUUACGGAAC | -2.89 ± 0.41 | – |
| AUAUAGCAAUAUUACGGAGU | -2.29 ± 0.13 | -1.82 ± 0.2 |
| AUAUAGCAAUAUUACGGCCC | -0.72 ± 0.15 | -0.205 ± 0.24 |
| AUAUAGCAAUAUUACGGUGA | -1.72 ± 0.2 | -1.11 ± 0.2 |
| AUAUAGCAAUAUUACGUCUG | -2.35 ± 0.1 | -0.0249 ± 0.12 |
| AUAUAGCAAUAUUACGUGCA | -1.57 ± 0.16 | 0.00562 ± 0.16 |
| AUAUAGCAAUAUUACGUGCC | -1.82 ± 0.38 | -1.01 ± 0.41 |
| AUAUAGCAAUAUUACGUUGU | -3.79 ± 0.29 | – |
| AUAUAGCAAUAUUACGUUUA | -2.02 ± 0.25 | -1.63 ± 0.2 |
| AUCAAGCAAUAUUACGAAAC | -3.16 ± 0.2 | -3.17 ± 0.28 |
| AUCAAGCAAUAUUACGACAA | -1 ± 0.12 | -0.427 ± 0.12 |
| AUCAAGCAAUAUUACGACAG | -3.07 ± 0.17 | -1.7 ± 0.18 |
| AUCAAGCAAUAUUACGCACC | -0.849 ± 0.26 | -0.581 ± 0.31 |
| AUCAAGCAAUAUUACGCGAC | -2.01 ± 0.23 | -1.58 ± 0.22 |
| AUCAAGCAAUAUUACGCGGG | -2.86 ± 0.14 | -1.04 ± 0.12 |
| AUCAAGCAAUAUUACGCGGU | -4.07 ± 0.19 | -2.03 ± 0.16 |
| AUCAAGCAAUAUUACGCUCA | 0.0216 ± 0.073 | 0.342 ± 0.096 |
| AUCAAGCAAUAUUACGGAUA | -2.42 ± 0.16 | -1.83 ± 0.15 |
| AUCAAGCAAUAUUACGGGAA | -1.87 ± 0.13 | -0.563 ± 0.12 |
| AUCAAGCAAUAUUACGGGCU | -1.86 ± 0.079 | -0.884 ± 0.087 |

| Sequence | self-splicing fitness (ln) (30 °C) | self-splicing fitness (ln) (37 °C) |
| --- | --- | --- |
| AUCAAGCAAUAUUACGUAUC | -4.11 ± 0.21 | -2.76 ± 0.34 |
| AUCAAGCAAUAUUACGUUCC | -2.85 ± 0.13 | -0.598 ± 0.17 |
| AUCCAGCAAUAUUACGAAGC | -2.53 ± 0.16 | -2.28 ± 0.23 |
| AUCCAGCAAUAUUACGAGCA | -1.14 ± 0.14 | -1.1 ± 0.11 |
| AUCCAGCAAUAUUACGAGGC | -1.97 ± 0.16 | -1.41 ± 0.23 |
| AUCCAGCAAUAUUACGCACA | -0.451 ± 0.098 | 0.366 ± 0.1 |
| AUCCAGCAAUAUUACGCAGC | -1.43 ± 0.13 | -1.26 ± 0.2 |
| AUCCAGCAAUAUUACGCCAA | -2.78 ± 0.22 | -1.71 ± 0.18 |
| AUCCAGCAAUAUUACGCCCA | -0.76 ± 0.14 | -0.212 ± 0.15 |
| AUCCAGCAAUAUUACGCGAA | -0.821 ± 0.054 | -0.468 ± 0.07 |
| AUCCAGCAAUAUUACGCGAG | -0.838 ± 0.065 | -0.241 ± 0.078 |
| AUCCAGCAAUAUUACGCGCG | -2 ± 0.074 | -0.8 ± 0.1 |
| AUCCAGCAAUAUUACGCUAA | -0.717 ± 0.093 | -1.13 ± 0.077 |
| AUCCAGCAAUAUUACGCUAC | -4.03 ± 0.3 | -1.95 ± 0.24 |
| AUCCAGCAAUAUUACGCUCU | 0.335 ± 0.14 | 0.709 ± 0.15 |
| AUCCAGCAAUAUUACGGACG | 0.0252 ± 0.082 | -0.0752 ± 0.089 |
| AUCCAGCAAUAUUACGGCGA | -1.02 ± 0.098 | -0.399 ± 0.13 |
| AUCCAGCAAUAUUACGGGAC | -4.17 ± 0.27 | -3.04 ± 0.2 |
| AUCCAGCAAUAUUACGGGCA | -0.0628 ± 0.073 | -0.507 ± 0.083 |
| AUCCAGCAAUAUUACGGUAA | -1.02 ± 0.076 | -0.567 ± 0.073 |
| AUCCAGCAAUAUUACGGUAU | -2.88 ± 0.13 | -1.19 ± 0.12 |
| AUCCAGCAAUAUUACGUUGG | -4.05 ± 0.18 | -2.97 ± 0.16 |
| AUCGAGCAAUAUUACGAGGU | -3.26 ± 0.3 | -2.93 ± 0.4 |
| AUCGAGCAAUAUUACGAUCG | -2.9 ± 0.22 | -3.06 ± 0.34 |
| AUCGAGCAAUAUUACGCAGU | -2.07 ± 0.23 | -1.85 ± 0.33 |

| Sequence | self-splicing fitness (ln) (30 °C) | self-splicing fitness (ln) (37 °C) |
| --- | --- | --- |
| AUCGAGCAAUAUUACGCCAC | – | -2.54 ± 0.45 |
| AUCGAGCAAUAUUACGCCCC | -2.24 ± 0.44 | – |
| AUCGAGCAAUAUUACGCCGU | -2.52 ± 0.21 | -1.46 ± 0.31 |
| AUCGAGCAAUAUUACGCGGA | -2.55 ± 0.17 | -0.974 ± 0.11 |
| AUCGAGCAAUAUUACGCGUU | -2.01 ± 0.17 | -1.1 ± 0.17 |
| AUCGAGCAAUAUUACGGCAC | -3.16 ± 0.15 | -1.87 ± 0.16 |
| AUCGAGCAAUAUUACGGCGU | -0.0628 ± 0.11 | -0.183 ± 0.11 |
| AUCGAGCAAUAUUACGGUAC | – | -2.51 ± 0.41 |
| AUCGAGCAAUAUUACGGUAU | -2.46 ± 0.13 | -1.12 ± 0.11 |
| AUCGAGCAAUAUUACGUAGA | -3.09 ± 0.32 | -2.7 ± 0.38 |
| AUCGAGCAAUAUUACGUAUC | -2.86 ± 0.35 | -3.28 ± 0.37 |
| AUCGAGCAAUAUUACGUGCA | -2.85 ± 0.21 | -1.14 ± 0.13 |
| AUCUAGCAAUAUUACGAAGG | -3.42 ± 0.3 | -2.01 ± 0.32 |
| AUCUAGCAAUAUUACGAAUA | – | -0.668 ± 0.32 |
| AUCUAGCAAUAUUACGACAA | -1.76 ± 0.23 | 0.296 ± 0.19 |
| AUCUAGCAAUAUUACGACCU | -0.471 ± 0.11 | 0.729 ± 0.12 |
| AUCUAGCAAUAUUACGACGA | -0.367 ± 0.12 | -0.44 ± 0.12 |
| AUCUAGCAAUAUUACGACGU | 0.175 ± 0.057 | 0.669 ± 0.069 |
| AUCUAGCAAUAUUACGCAAG | -1.46 ± 0.17 | -1.29 ± 0.18 |
| AUCUAGCAAUAUUACGCACG | -1.37 ± 0.15 | -0.353 ± 0.14 |
| AUCUAGCAAUAUUACGCCUG | -0.828 ± 0.16 | -1.39 ± 0.23 |
| AUCUAGCAAUAUUACGCCUU | -0.764 ± 0.073 | 0.116 ± 0.095 |
